According to patent US20080199473A1 (CLEVELAND CLINIC FOUNDATION, published 2008):

Molecular target: T1, 35S-labelled luciferase (UniProt P08659 1-550 = luciferase, 35S label (in-vitro-translated))
T1 construct: Negative control of the pull-down; also called luciferase (about 61 kDa)
Test: GST pull-down, 35S-labelled luciferase

T1 sequence (P08659 whole entry): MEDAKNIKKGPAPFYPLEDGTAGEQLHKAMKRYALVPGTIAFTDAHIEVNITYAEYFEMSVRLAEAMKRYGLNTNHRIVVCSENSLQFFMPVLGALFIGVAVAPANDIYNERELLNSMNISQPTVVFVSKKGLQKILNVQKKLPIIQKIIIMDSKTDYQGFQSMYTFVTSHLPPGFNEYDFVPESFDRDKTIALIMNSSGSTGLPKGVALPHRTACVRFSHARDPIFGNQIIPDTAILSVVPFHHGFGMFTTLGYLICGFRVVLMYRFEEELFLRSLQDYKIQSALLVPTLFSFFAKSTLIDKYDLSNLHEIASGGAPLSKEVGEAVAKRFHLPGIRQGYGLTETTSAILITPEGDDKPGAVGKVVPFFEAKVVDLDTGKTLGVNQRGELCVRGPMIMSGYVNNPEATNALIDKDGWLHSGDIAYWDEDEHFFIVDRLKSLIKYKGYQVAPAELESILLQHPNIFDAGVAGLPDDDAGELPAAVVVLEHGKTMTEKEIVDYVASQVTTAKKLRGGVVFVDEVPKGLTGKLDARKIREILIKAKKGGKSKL

B1: GST-TWEAK protein (ligand, UniProt O43508 136-249, looked up)
chain: ARINSSSPLRYNRQIGEFIVTRAGLYYLYCQVHFDEGKAVYLKLDLLVDGVLALRCLEEFSATAASSLGPQLRLCQVSGLLALRPGSSLRIRTLPWAHLKAAPFLTYFGLFQVH
notes: also called GST-TWEAK fusion protein; not shown: glutathione S-transferase (GST) tag
- binding result: no binding
